These results are taken from article PMC2189183.

Read-outs that look alike come from different tables or passages of the source.

Common to all, as to experiment: conjugate formation
Test [1] deals with HLA class I antigens of JY cells (human (endogenous in JY)) (UniProt P04439).
Test [2] shares this target. The source holds these as a separate data set.
The target is the same in test [3]. The source holds these as a separate data set.

UniProt P04439, sequence (P04439 whole entry, looked up): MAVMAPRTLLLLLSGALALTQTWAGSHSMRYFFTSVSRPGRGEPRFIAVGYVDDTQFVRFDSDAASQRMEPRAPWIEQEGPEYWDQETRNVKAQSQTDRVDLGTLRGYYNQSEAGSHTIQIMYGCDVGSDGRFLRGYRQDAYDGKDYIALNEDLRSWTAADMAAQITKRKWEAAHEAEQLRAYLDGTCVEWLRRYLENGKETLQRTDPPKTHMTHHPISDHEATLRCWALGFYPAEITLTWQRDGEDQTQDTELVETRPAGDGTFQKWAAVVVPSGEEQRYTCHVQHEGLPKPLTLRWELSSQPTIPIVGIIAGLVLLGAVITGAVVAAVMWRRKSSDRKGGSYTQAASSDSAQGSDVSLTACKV

Turning to “CD8 (human CD8 expressed in the murine T cell hybridoma 16.T8-15) (from UniProt P01732 22-235) (receptor)”, the figures for the percent conjugates in test [1], in test [2] and in test [3] were 42%, 22% and 29%, respectively.
